Assay results from publication PMC9405658.
pKd: −log10 of the molar value.

Biological target: YadA (Yersinia adhesin A) displayed on E. coli BL21 DE3 cells (Yersinia enterocolitica) (UniProt P0C2W0)
Experiment: fluorescence cell-binding assay (eluted FAM-aptamer)
Conditions: 1.4 mM Mg2+; whole cells; authors say true Kd for pure YadA is probably higher; Kd: PBS 1x pH 7.4 (137 mM NaCl, 2.7 mM KCl, 8 mM Na2HPO4, 2 mM KH2PO4) + 1.4 mM MgCl2, 37 C, 75 min, 0-100 nM aptamer; sensor: inactivated cells in PBS 1x pH 7.

UniProt P0C2W0, sequence (P0C2W0 whole entry): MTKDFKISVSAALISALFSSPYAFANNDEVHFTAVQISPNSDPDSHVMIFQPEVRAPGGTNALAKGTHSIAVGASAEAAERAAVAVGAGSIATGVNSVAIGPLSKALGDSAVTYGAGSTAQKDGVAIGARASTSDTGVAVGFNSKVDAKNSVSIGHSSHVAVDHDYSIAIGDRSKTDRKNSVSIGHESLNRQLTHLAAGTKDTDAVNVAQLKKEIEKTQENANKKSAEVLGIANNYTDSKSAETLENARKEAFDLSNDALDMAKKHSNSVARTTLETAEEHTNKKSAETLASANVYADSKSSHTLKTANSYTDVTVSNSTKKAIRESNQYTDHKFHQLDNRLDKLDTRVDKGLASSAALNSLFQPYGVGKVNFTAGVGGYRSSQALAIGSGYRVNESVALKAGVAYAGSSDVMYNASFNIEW

Sequence: ATCCAGAGTGACGCAGCATGACAGACGGGAGAGACACGACGGGGGCGGGGAGTGAGAAGCGCGCGCTGAATGTCGTTGGTGGCCC [Apt1 (FAM)]
- pKd: 7.96
